# Patent US20250304965A1, “DOUBLE-STRANDED RNA MOLECULE AND PHARMACEUTICAL USE THEREOF” (MACAU UNIVERSITY OF SCIENCE AND TECHNOLOGY, priority 2022, published 2025)
# [Ψ] = pseudouridine
# B1: GL12 mimic: chemically modified GL2 double-stranded RNA (pseudouridine); antisense SEQ ID NO: 22, sense SEQ ID NO: 26, length 41 (nucleic acid)
# antisense: AUAAGGAAUCUGUAGAAGUUCGAUUCUUCUUGGGCUUACCA
# sense: UGGUAAGCCCAAGAAGAAUCGAACUUCUACAGAUUCCUUAU
# modifications: antisense: RNA, [Ψ] at 20, backbone not given here; sense: RNA, backbone not given here
# What was measured:
# Format in all cases: cell-based, human
# HepG2 cells = assay: MTT cytotoxicity analysis, liver cancer cells HepG2
# Description: (§1) A2780 and HCT-8 cell lines were cultured in RPMI 1640 medium containing 10% FBS and 1% penicillin/streptomycin. HepG2 cell lines were cultured in MEM medium containing 10% FBS and 1% penicillin/streptomycin. All the above cell lines were cultured at 37° C. in a humidified atmosphere containing 5% CO2.
# (§2) In the cytotoxicity analysis, exponentially growing cells of each cancer cell line were inoculated at a density of 5000 cells per well in a 100 μL medium in a 96-well microplate and allowed to adhere for 24 hours prior to treatment. Then obtained RNA molecules at successive concentrations with a nucleic acid transfer vector, namely, Lipofectamine™ RNAiMAX transfection reagent (Thermo Fisher Scientific, United States), were added to the cells. After 48 hours of treatment, MTT solution (50 μL per well, 1 mg/mL solution) was added to each well and incubated at 37° C. for 4 hours. Then 200 μL of dimethyl sulfoxide (DMSO) was added, and an optical density of the resulting solution was measured via calorimetry by using SpectraMax 190 microplate reader (Molecular Devices, United States) at 570 nm. Dose-response curves were obtained and IC50 values were calculated via GraphPad Prism 5 (GraphPad, United States). Each experiment was performed three times.
# (§3) Before addition of the MTT solution, the inventor determined the cytotoxic effects and IC 50 of the GL1, GL2, GL4, and GL6 mimics at different concentrations of 6.25 nM, 12.5 nM, 25 nM, 50 nM, 100 nM, and 200 nM on A2780, HCT-8 and HepG2 cells. After 48 hours of the treatment of the double-stranded RNA molecules, the cell viability of these cells was compared with that of the control group and the RNAiMAX group. Paclitaxel was used in a comparative example. […] The results were compared with those of the control group and the RNAiMAX group using the transfection agent. For IC50, refer to Table 4. Paclitaxel was used in a comparative example.
# (§4) Then the inventor specifically determined the cytotoxic effects and IC50 of the RNA molecules GL2 mimic and different chemically modified GL10, GL11 and GL12 mimics at different concentrations of 6.25 nM, 12.5 nM, 25 nM, 50 nM, 100 nM, and 200 nM on A2780, HCT-8 and HepG2 cells. […] For IC50, refer to Table 5. Paclitaxel was used in a comparative example.
# A2780 cells = assay: MTT cytotoxicity analysis, ovarian cancer cells A2780
# Description: as §1, §2, §3, §4
# HCT-8 cells = assay: MTT cytotoxicity analysis, colorectal cancer cells HCT-8
# Description: as §1, §2, §3, §4
molecule,measurement,setting,value
B1,IC50,"HepG2 cells; HepG2 liver cancer cells, 48 hours of treatment, Lipofectamine RNAiMAX transfection reagent, MTT, read-out: Median inhibitory concentration IC50",183 nM
same,inhibition of growth and proliferation (cell viability vs control and RNAiMAX group),"HepG2 cells; liver cancer cells HepG2, 6.25-200 nM, 48 hours, FIG. 6-8",have a dose-dependent effect on inhibiting the growth and proliferation
same,IC50,"A2780 cells; A2780 ovarian cancer cells, 48 hours of treatment, Lipofectamine RNAiMAX transfection reagent, MTT, read-out: Median inhibitory concentration IC50",43.7 nM
same,inhibition of growth and proliferation (cell viability vs control and RNAiMAX group),"A2780 cells; ovarian cancer cells A2780, 6.25-200 nM, 48 hours, FIG. 6-8",have a dose-dependent effect on inhibiting the growth and proliferation
same,IC50,"HCT-8 cells; HCT-8 colorectal cancer cells, 48 hours of treatment, Lipofectamine RNAiMAX transfection reagent, MTT, read-out: Median inhibitory concentration IC50",32.4 nM
same,inhibition of growth and proliferation (cell viability vs control and RNAiMAX group),"HCT-8 cells; colon cancer cells HCT-8, 6.25-200 nM, 48 hours, FIG. 6-8",have a dose-dependent effect on inhibiting the growth and proliferation
